# Measured values published in CN112480258A (HUADAO SHANGHAI BIOMEDICAL CO LTD, dated 2021).
# T1: Human IL-3Rα/CD123蛋白 (human, UniProt P26951 19-305, limits assumed)
# T1 construct: Soluble antigen in the SPR mobile phase
# T1 sequence (looked up): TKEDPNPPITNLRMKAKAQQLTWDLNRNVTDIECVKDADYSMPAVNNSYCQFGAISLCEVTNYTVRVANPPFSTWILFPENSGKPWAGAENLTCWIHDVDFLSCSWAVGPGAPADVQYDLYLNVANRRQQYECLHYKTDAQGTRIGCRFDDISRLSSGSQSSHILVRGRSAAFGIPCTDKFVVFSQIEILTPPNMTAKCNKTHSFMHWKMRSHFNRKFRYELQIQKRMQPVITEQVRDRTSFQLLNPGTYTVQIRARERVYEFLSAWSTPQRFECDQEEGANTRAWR
# Molecular target: T1, Human IL-3Rα/CD123蛋白
# Assay: SPR (Biacore), antibody immobilised on the chip, antigen in the mobile phase
Kd [nM],koff [s⁻¹],kon [M⁻¹ s⁻¹],Binder
0.0466,1.42e-05,305000,"CD123-9 VHH-mIgG2a Fc纳米抗体 (Fc fusion, also called 抗CD123 VHH抗体CD123-9; CD123-9抗体; not shown: mouse IgG2a Fc tag from vector C-4pCP.Stuffer-mCg2a-FC) EVQLVESGGGLVQPGGSLRLSCAASGFTFSSYDMSWVRQAPGKGLEWVSHIKPGPVGTDYTDSVKGRFTISRDNAKNTLYLQMDSLKTEDTAVYYCARGSRYSWNLDGPLRGQGTQVTVSS"
0.0551,1.62e-05,295000,"CD123-12 VHH-mIgG2a Fc纳米抗体 (Fc fusion, also called 抗CD123 VHH抗体CD123-12; CD123-12抗体; not shown: mouse IgG2a Fc tag from vector C-4pCP.Stuffer-mCg2a-FC) EVQLVESGGDLVQPGGSLRLSCAASGFTFSSYDMSWVRQAPGKGLEWVSHIKPGPVGTDYTDSVKGRFTISRDNAKNTLYLQMDSLKTEDTAVYYCARGSRYSWNLDGPLRGQGTQVTVSS"
